Our source for the RLU values is US20240262910A1.

Substitutions are numbered along the chain they refer to.

For experiment [1], the target named is cynomolgus monkey CD33 extracellular domain with 6xHis-tag (cynomolgus monkey). Kind of experiment: ELISA, hybridoma supernatant. For orientation: In an ELISA, binding on a coated surface is turned into a signal by an enzyme label.
In experiment [2] the target is mouse CD33 extracellular domain with 6xHis-tag (mouse) (UniProt Q63994). In words: ELISA, hybridoma supernatant.
Sequence of mouse CD33 extracellular domain with 6xHis-tag (mouse) (Q63994 other isoform, or with tags, fused parts or gaps limits assumed): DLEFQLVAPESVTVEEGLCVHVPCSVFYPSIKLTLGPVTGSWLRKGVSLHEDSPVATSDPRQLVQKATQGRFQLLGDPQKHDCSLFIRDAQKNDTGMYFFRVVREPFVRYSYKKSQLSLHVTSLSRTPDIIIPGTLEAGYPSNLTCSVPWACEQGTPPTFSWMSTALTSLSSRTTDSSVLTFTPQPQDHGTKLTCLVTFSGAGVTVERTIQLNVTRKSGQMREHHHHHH

B1: 3-P14 (hybridoma antibody) (antibody, V domains shown)
VH: EVQLLESGGGLVQPGGSLRLSCAASGFTFSTYAMSWVRQAPGKGLEWVSAISGRGGSTYYTDSVKGRFTISRDNSKNTVSLQMNSLRAEDTAVYYCAGRGDYYYYYGMDVWGQGTTVTVSA
VL: DIVMTQSPLSSPVTLGQPASFSCRSSQSLVYSDGNTYLSWLQQRPGQPPRLLIYKISNRFSGVPDRFSGSGAGTDFTLKISRVEAEDVGVYYCMQSTQFPHTFGQGTKLEIK
In the case of B1, the RLU came to 12700 RLU in experiment [1] and 13700 RLU in experiment [2].

B2: 1-A20 (antibody, V domains shown)
VH: QVQLQESGPGLVKPSETLSLTCTVSGDSISSYYWSWIRQPAGKGLEWIGRIYTSGNTNYNPSLKSRVTMSVDKSKNQFSLKLRSVTAADTAVYYCARDGDNRDSDAFDIWGQGTMVTVSS
VL: SPGTLSLSPGERATLSCRASQNISSSYLAWCQQKPGQAPRLFIYGTSRRATGIPDRFSGSGSGTDFTLTISRLEPEDFAVYYCQQYGSSPLTFGGGTKVEIK
On to B2, for which the RLU in experiment [1] worked out at 35500 RLU.

B3: 1-H19 (antibody, V domains shown)
VH: B2 VH with D27G, S31T, K73T, F78L, D103N
VL: QSVLTQPPSVSGAPGQRVTISCTGSSSNIGAGYDVHWYQQLPGTAPKLLIYGNSNRPSGVPDRFSGSKSGTSASLAITGLQAEDEADYYCQSYDRSLSGWVFGGGTKLTVL
For B3, the RLU in experiment [1] worked out at 22500 RLU.
